Assay results published in patent publication US20210154314A1.

Experiments:
Her2 (ErbB2) [1] = target: Her2 (ErbB2) (UniProt P04626); assay: ligand binding assay ('Binding Activity'), format not described; lyophilized formula B2 after 37 C for 1 month
Her2 (ErbB2) [2] = target: Her2 (ErbB2) (UniProt P04626); assay: ligand binding assay ('Binding Activity'), format not described; lyophilized formula B2 after 25 C for 3 months
Her2 (ErbB2) [3] = target: Her2 (ErbB2) (UniProt P04626); assay: ligand binding assay ('Binding Activity'), format not described; lyophilized formula B2 after 4 C for 6 months
Her2 (ErbB2) [4] = target: Her2 (ErbB2) (UniProt P04626); assay: ligand binding assay ('Binding Activity'), format not described; lyophilized formula B4 after 25 C for 3 months
Her2 (ErbB2) [5] = target: Her2 (ErbB2) (UniProt P04626); assay: ligand binding assay ('Binding Activity'), format not described; lyophilized formula B6 after 37 C for 1 month
Her2 (ErbB2) [6] = target: Her2 (ErbB2) (UniProt P04626); assay: ligand binding assay ('Binding Activity'), format not described; lyophilized formula B6 after 25 C for 3 months
Her2 (ErbB2) [7] = target: Her2 (ErbB2) (UniProt P04626); assay: ligand binding assay ('Binding Activity'), format not described; lyophilized formula B6 after 4 C for 6 months
Her2 (ErbB2) [8] = target: Her2 (ErbB2) (UniProt P04626); assay: ligand binding assay ('Binding Activity'), format not described; lyophilized formula B4 after 4 C for 6 months
Her2 (ErbB2) [9] = target: Her2 (ErbB2) (UniProt P04626); assay: ligand binding assay ('Binding Activity'), format not described; lyophilized formula B4 after 37 C for 1 month

B1: recombinant humanized anti-Her2 monoclonal antibody-MMAE conjugate (RC48-vc-MMAE) (antibody, INN chains, looked up, V domains shown, not shown: a dimerising Fc or GST)
VH: EVQLVQSGAEVKKPGATVKISCKVSGYTFTDYYIHWVQQAPGKGLEWMGRVNPDHGDSYYNQKFKDKATITADKSTDTAYMELSSLRSEDTAVYFCARNYLFDHWGQGTLVTVSS
VL: DIQMTQSPSSVSASVGDRVTITCKASQDVGTAVAWYQQKPGKAPKLLIYWASIRHTGVPSRFSGSGSGTDFTLTISSLQPEDFATYYCHQFATYTFGGGTKVEIK
modifications: vedotin: mc-vc-PAB-MMAE payload
IC50 (Her2 (ErbB2) [1]): 0.0152 nM
IC50 (Her2 (ErbB2) [2]): 0.0133 nM
IC50 (Her2 (ErbB2) [3]): 0.0132 nM
IC50 (Her2 (ErbB2) [4]): 0.0127 nM
IC50 (Her2 (ErbB2) [5]): 0.0148 nM
IC50 (Her2 (ErbB2) [6]): 0.0129 nM
IC50 (Her2 (ErbB2) [7]): 0.0133 nM
IC50 (Her2 (ErbB2) [8]): 0.0122 nM
IC50 (Her2 (ErbB2) [9]): 0.0126 nM
